Tests used:
[1] = target: SARS-CoV-2 wildtype S1 (SARS-CoV-2 wildtype (Wuhan), UniProt P0DTC2)
[2] = target: S-R/Wildtype spike (SARS-CoV-2 hCoV-19/Wuhan/WIV04/2019, UniProt P0DTC2, stabilised)
[3] = target: Omicron BA.1 spike (based on S-R/Wildtype spike) (SARS-CoV-2 Omicron BA.1 (B.1.1.529), S371L | S373P | S375F | K417N)
[4] = target: Delta spike (based on S-R/Wildtype spike) (SARS-CoV-2 Delta (B.1.617.2), L452R | T478K)
[5] = target: SARS-CoV-2 Omicron BA.1 (B.1.1.529) RBD (SARS-CoV-2 Omicron BA.1 (B.1.1.529), strain)
[6] = target: SARS-CoV-2 Kappa (B.1.617.1) spike ECD (SARS-CoV-2 Kappa (B.1.617.1), strain)
[7] = target: SARS-CoV-2 Lambda (C.37) RBD (SARS-CoV-2 Lambda (C.37), strain)
[8] = target: SARS-CoV-2 Delta (B.1.617.2) S1 (SARS-CoV-2 Delta (B.1.617.2), strain)
[9] = target: SARS-CoV-2 Beta (B.1.351) S1 (SARS-CoV-2 Beta (B.1.351), strain)
[10] = target: SARS-CoV-2 Gamma (P.1) S1 (SARS-CoV-2 Gamma (P.1), strain)

Measured: binding result

B1: YB9-120 (antibody, V domains shown)
VH: QVQLQESGPGLVKPSGTLSLTCAVSGGSIRTTKWWSWVRQPPGKGLEWIGEIHHGGNTNYNPSLKSRVTISVDKSKNQFSLKLTSVTAADTAVYYCARDGGGVGTPLEYWGQGTLVTVSS
VL: QSGLTQPASVSGSPGQSITISCTGTISDVGAYNYVSWYQQHPGRAPKVVIYDVSERPSGTSNRFSGSKSGNTASLTISGLQAEDEADYYCSSFTNTTPVVFGGGTKLTVL
binds: all assays above

B2: YB12-197 (antibody, V domains shown)
VH: EVQLVESGGGLVQPGGSLRLSCAASGFTVSSNYMNWVRQAPGKGLEWVSVIYSGGSTFYADSVKGRFTISRDNSKNTLYLQMNSLRAEDTAVYYCARDAYNYGANWGQGTLVTVSS
VL: HLVLTQSPSASASLGASVKLTCTLSSGHSNNAIAWHQQQPEKGPRYLMHLNSDGSHTKGDGIPDRFSGSSSGAERYLTISSLQSEDEAEYYCQTWGTDIHWVFGGGTKLTVR
binds: all assays above

B3: YB13-208 (antibody, V domains shown)
V domain 1: QITLKESGPTLVKPTQTLTLTCTFSGLSLSTSGVSVGWIRQPPGKAPEWLALIYWDDDKRYSPSLTSRLSITKDTSKNQVVLTMTNMDPVDTATYYCAHPRYYGDSSGYYWIWGQGTMVTVSS
V domain 2: SYELTQPPSVSVSPGQTARITCSGDALPKQYAYWYQQKPGQAPVVVMYKTSERPSGIPERFSGSSSGTTVTLTISGVQAEDEADYYCQSADSSGFYVFGTGTQVTVL
not listed: [5]
binds: all other assays above

B4: YB13-281 (antibody, V domains shown)
VH: EVQLVESGGGLVKPGGSLRLSCAASGFTFSSYSMNWVRQAPGKGLEWVSSISSSSSYIHYADSVKGRFTISRDNAKNSLYLQMNSLRAEDTAVYYCARVSSKDYYDRSGYLRGDYDYGMDVWGQGTTVTVSS
VL: QSVLTQPPSVSGAPGQRVTISCTGNSSNIGAAYDVHWYQQLPGTAPKLLIYGNSNRPSGVPDRFSGSKSGTSASLAITGLQAEDEADYYCQSYDSSLSGVFGGGTKLTVL
binds: all assays above

From publication PMC9951844 (Nature Communications, 2023)
